Experimental data reported in patent publication US20200392225A1 (Novartis, published 2020).

Tests used:
[1] = biological target: T1, rat NPR1-ANP complex (rat); assay: ELISA, IgG titrated on the antigen with 250 fold molar excess of ANP [cont.]
T1 construct: Rat receptor antigen measured in the presence of ANP; also called rNPR1 + ANP; rNPR1-ANP-complex

[2] = biological target: T2, constitutively active human NPR1 mutant (W74R), recombinant antigen (human, UniProt P16066 33-473); assay: ELISA, IgG titrated on the antigen without ANP
T2 construct: also called W74R hNPR1
T2 sequence: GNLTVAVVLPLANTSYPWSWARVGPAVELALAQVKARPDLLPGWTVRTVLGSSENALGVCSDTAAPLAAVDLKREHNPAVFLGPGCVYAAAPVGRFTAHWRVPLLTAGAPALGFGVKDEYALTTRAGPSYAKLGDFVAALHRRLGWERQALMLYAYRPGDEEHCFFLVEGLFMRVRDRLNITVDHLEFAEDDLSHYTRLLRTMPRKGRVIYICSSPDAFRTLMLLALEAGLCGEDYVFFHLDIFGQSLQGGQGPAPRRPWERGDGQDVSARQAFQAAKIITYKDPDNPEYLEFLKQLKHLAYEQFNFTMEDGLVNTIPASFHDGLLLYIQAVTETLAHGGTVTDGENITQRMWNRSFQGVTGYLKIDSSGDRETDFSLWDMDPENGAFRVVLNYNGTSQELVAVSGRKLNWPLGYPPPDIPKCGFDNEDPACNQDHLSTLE

[3] = biological target: T3, human NPR1-ANP complex (human, UniProt P01160 124-151, limits assumed); assay: FRET assay on hNPR1, competitor Cy5-labeled ANP (half-maximal rise of the ANP signal) [cont.]
T3 construct: Receptor antigen measured in the presence of ANP; also called hNPR1 + ANP; hNPR1-ANP-complex
T3 sequence: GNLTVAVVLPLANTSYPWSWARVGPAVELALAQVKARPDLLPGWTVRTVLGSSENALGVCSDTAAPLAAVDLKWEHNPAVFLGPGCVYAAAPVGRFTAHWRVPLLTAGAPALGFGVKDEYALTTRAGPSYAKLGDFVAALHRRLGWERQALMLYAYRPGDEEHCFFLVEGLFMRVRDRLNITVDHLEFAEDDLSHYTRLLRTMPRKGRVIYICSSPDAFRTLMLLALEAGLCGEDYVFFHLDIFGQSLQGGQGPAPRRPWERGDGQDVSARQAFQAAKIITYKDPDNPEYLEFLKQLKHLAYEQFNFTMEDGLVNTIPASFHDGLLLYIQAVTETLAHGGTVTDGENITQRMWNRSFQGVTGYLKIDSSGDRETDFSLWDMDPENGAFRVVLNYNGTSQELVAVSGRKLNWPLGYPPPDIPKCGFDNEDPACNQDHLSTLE
T3 sequence (peptide): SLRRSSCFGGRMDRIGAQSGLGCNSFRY

[4] = biological target: T4, human NPR1 expressed on CHO-K1 cells in the presence of ANP (human, UniProt P01160 124-151); assay: flow cytometry, hNPR1 expressing CHO-K1 cells with saturating ANP [cont.]
T4 construct: also called hNPR1 CHO K1 + 100 nM ANP
T4 sequence: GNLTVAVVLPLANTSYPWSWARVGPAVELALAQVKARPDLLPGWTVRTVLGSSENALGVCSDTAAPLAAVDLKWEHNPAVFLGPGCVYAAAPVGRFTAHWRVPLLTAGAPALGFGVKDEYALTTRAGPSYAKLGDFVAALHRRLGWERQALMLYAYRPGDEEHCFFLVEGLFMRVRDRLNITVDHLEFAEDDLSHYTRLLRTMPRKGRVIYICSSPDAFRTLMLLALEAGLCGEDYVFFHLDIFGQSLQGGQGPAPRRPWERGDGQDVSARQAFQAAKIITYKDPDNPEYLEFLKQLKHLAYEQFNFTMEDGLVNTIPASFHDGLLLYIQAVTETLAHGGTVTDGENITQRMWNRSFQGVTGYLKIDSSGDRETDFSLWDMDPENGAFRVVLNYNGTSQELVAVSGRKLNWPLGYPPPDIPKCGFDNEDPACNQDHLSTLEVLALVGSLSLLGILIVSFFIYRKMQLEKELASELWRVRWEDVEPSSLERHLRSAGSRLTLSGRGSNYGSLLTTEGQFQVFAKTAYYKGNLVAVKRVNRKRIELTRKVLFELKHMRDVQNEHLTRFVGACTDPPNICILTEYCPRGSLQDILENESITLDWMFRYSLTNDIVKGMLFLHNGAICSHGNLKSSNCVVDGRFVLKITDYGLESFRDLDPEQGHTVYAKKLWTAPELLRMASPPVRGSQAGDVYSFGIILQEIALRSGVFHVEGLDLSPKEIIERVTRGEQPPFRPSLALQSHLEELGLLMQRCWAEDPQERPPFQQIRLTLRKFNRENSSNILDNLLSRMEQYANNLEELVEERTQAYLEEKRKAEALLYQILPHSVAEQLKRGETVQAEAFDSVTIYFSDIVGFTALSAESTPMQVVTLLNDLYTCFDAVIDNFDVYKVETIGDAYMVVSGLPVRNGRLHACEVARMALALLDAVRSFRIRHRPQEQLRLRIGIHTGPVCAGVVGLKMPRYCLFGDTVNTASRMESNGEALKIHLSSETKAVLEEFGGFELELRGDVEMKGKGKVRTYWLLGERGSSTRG
T4 sequence (peptide): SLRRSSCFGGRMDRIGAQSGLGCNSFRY

B1: XX07 IgG (antibody, V domains shown)
VH: QVQLLESGGGLVQPGGSLRLSCAASGFTFSSYWMNWVRQAPGKGLEWVSAISSDGSYTYYADSVKGRFTISRDNSKNTLYLQMNSLRAEDTAVYYCARDRYSMIYSYGAGAFDYWGQGTLVTVSS
VL: DIQMTQSPSSLSASVGDRVTITCRASQGISSYLAWYQQKPGKAPKLLIYTASTLQSGVPSRFSGSGSGTDFTLTISSLQPEDFATYYCQQIWTVPRTFGQGTKVEIKR
notes: also called XX07_LALA
EC50 (read off the curve) [1]: ~0.2 nM

B2: YY02 IgG (YY02_LALA) (antibody, V domains shown)
VH: EVQLVESGGGLVKPGGSLRLSCAASGFTFSSYSMNWVRQAPGKGLEWVSSISSSSSYIYYADSVKGRFTISRDNAKNSLYLQMNSLRAEDTAVYYCARSGYRGVYGFDYWGQGTLVTVSS
VL: DIQMTQSPSSVSASVGDRVTITCRASQGISSWLAWYQQKPGKAPKLLIYAASSLQSGVPSRFSGSGSGTDFTLTISSLQPEDFATYYCQQYYHSPLTFGQGTKVEIKR
EC50 (read off the curve) [2]: ~2 nM

B3: XX12 IgG (antibody, V domains shown)
VH: QVQLLESGGGLVQPGGSLRLSCAASGFTFSSYWMNWVRQAPGKGLEWVSAISSDGSYTYYADSVKGRFTISRDNSKNTLYLQMNSLRAEDTAVYYCARDRYSMIYSYGAGAFDYWGQGTLVTVSS
VL: DIQMTQSPSSLSASVGDRVTITCRASQGISSYLAWYQQKPGKAPKLLIYTASTLQSGVPSRFSGSGSGTDFTLTISSLQPEDFATYYCQQIWMAPRTFGQGTKVEIKR
notes: also called XX12_LALA
EC50 (read off the curve) [3]: ~0.5 nM
EC50 (read off the curve) [4]: ~0.9 nM
